Numbering of substitutions follows the chain as printed. Names may count otherwise.
Tests used:
[1] = target: site-specifically biotinylated IL-17RB, immobilized (human) (UniProt Q9NRM6); assay: SPR; Biacore T100; about 300 RU of site-specifically biotinylated IL-17RB immobilized on a Series S Sensor Chip SA; regeneration 2 M MgCl2; steady-state affinity analysis
[2] = target: T1, IL-17RB (18-502) fused to the ALFA-tag, on HeLa cells (human) (UniProt Q9NRM6)
T1 sequence: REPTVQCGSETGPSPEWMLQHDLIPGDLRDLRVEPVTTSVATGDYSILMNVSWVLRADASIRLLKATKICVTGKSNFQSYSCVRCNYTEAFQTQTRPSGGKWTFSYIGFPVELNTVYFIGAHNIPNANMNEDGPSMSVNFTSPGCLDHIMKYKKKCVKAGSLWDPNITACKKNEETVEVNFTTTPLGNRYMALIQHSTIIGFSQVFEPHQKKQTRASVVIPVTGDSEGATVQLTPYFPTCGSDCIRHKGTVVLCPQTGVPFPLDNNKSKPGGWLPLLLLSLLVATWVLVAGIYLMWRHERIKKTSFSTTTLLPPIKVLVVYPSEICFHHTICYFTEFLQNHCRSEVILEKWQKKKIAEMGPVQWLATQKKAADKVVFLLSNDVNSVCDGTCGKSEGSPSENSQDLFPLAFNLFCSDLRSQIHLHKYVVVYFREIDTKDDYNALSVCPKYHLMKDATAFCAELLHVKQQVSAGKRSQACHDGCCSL

IL-17RB (1-288) = target: T2, IL-17RB (1-288) (human, UniProt Q9NRM6 18-288); assay: cryo-EM structure; IL-25 and IL-17RB co-expressed in Expi293F GnTI- cells and co-purified; 2:2 complex (3.18 Å) and higher-order 6:6 complex (4.39 Å) from one sample; HBS 20/150 pH 7.4; conditions: both partners purified
T2 construct: signal peptide in the construct; IL-17 receptor B (IL-17RB), human, amino acids 1-288; Two constructs are named (C-terminal 3C-proteinC-8xHis in pVLAD6; C-terminal Avitag-6xHis in pD649); also called IL-17 receptor B; apo-IL-17RB
T2 sequence (looked up): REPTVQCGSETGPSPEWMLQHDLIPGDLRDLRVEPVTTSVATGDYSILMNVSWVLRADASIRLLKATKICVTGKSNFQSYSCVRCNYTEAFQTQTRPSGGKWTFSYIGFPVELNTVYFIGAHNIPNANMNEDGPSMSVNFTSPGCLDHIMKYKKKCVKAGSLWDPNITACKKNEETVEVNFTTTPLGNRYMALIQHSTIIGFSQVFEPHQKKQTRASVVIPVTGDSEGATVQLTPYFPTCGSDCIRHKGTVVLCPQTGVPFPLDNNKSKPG

Molecule: IL-17RA (1-317) (from UniProt Q96F46 33-317) (receptor)
- Kd [1]: 13.8 µM

B1: IL-25 Y92A (ligand)
chain: THTYSHWPSCCPSKGQDTSEELLRWSTVPVPPLEPARPNRHPESCRASEDGPLNSRAISPWRAELDRDLNRLPQDLYHARCLCPHCVSLQTGSHMDPRGNSELLYHNQTVFYRRPCHGEKGTHKGYCLERRLYRVSLACVCVRPRVMG
- NF-κB reporter (SEAP) HEK293 cells expressing IL-17RA, ACT1 and endogenous IL-17RB, varying concentrations of IL-25 mutant: EC50 shift relative to WT IL-25 [2]: > 3 log-fold

B2: IL-25 (amino acids 30-177) (ligand, human, UniProt Q9H293 30-177, looked up)
chain: B1 chain with A63Y
notes: IL-25 (IL-17E), human, amino acids 30-177; Two constructs are named (Igk signal peptide with C-terminal 3C-cleavable Avitag-6xHis in pEG BacMam; HA signal peptide with C-terminal Avitag-6xHis in a lentiviral vector); also called IL-17E; WT IL-25
- binding result (IL-17RB (1-288)): binds
